The values below are quoted from earlier work in publication PMC9709720, “An orally available small molecule that targets soluble TNF to deliver anti-TNF biologic-like efficacy in rheumatoid arthritis” (Frontiers in Pharmacology, 2022).

The test system of the data set is free soluble TNF in human synovial tissue. Set-up: method as in Tani et al. (2013). As to conditions: one third of reported steady state concentration, synovial fluid; ref Tani et al. (2013).

On to infliximab, for which the “Css^f used in model” value was 17 nM.

On to etanercept, for which the “Css^f used in model” value is recorded as 2.2 nM.
